US20240325557A1, “TREATMENT OF CANCER” (INNATE PHARMA, priority 2020, published 2024)

Key:
[1] = molecular target: HER2 on SUM185 and SUM190 human breast cancer tumor cells (human) (UniProt P04626); test: flow cytometry on SUM190 cells, antibody at 10 µg/ml
[2] = molecular target: HER2 on SUM185 and SUM190 human breast cancer tumor cells (human) (UniProt P04626); test: flow cytometry on SUM185 cells, antibody at 10 µg/ml

Substance “Anti-Her2 antibody trastuzumab modified as human IgG1 isotype containing a N297Q mutation” has an MFI (median fluorescence units) [1] of 1780 and an MFI (median fluorescence units) [2] of 2880.
